Test [1] addresses C-terminally amidated amyloid-beta fragment Aβ1-24-NH2 (human). Description: high-resolution LC-MS.
For test [2] the target is unchanged. Put plainly: SDS-PAGE and immunoblot. For orientation: A western blot detects proteins with antibodies after separation by electrophoresis.
Test [3] addresses C-terminally truncated amyloid-beta fragment Aβ1-23 (human). Description: SDS-PAGE and immunoblot.
Test [4] concerns the target C-terminally truncated amyloid-beta fragment Aβ1-25 (human). Description: SDS-PAGE and immunoblot.
The target is the same in test [5]. Put plainly: SDS-PAGE and immunoblot. The source holds these as a separate data set.

Consider 3 substances from publication doi:10.1101/2022.12.04.519021.

Values joined by “and” are separate entries in the source; they are usually repeats but may differ in a detail not shown here. Equal entries are not always repeated. Where two headings read alike, the source gives them in different places.

Broadly, the stoichiometry N is a count of units in the complex or per binding partner. Take “C-terminally amidated amyloid-beta fragment Aβ1-24-NH2 (peptide)”: the stoichiometry N in test [1] is 3 and 2 and 5; in test [2], 2 and 3.

“C-terminally truncated amyloid-beta fragment Aβ1-23 (peptide)”: the stoichiometry N in test [3] is 3 and 2.

With “C-terminally truncated amyloid-beta fragment Aβ1-25 (peptide)”, the stoichiometry N was found to be 2 in test [4] and 3 in test [5].
